Laboratory results reported in paper PMC10641069, “Intra- and inter-molecular regulation by intrinsically-disordered regions governs PUF protein RNA binding” (Nature Communications, 2023).
Positions count from the first letter of the chain named. Several values for one entry are separate records, joined by “and”; a condition that tells them apart may be missing. Identical values can stand only once. Entries after “also recorded” stand apart in the source; their conditions may differ. Like-named read-outs stand apart in the source and are kept apart here.

Assays:
FBF-2 RBD [1] = target: T1, FBF-2 RBD (Caenorhabditis elegans, UniProt Q09312); type: binding, C. elegans; settings: mean of two independent replicates, 20 °C, 20 mM HEPES pH 7.4, 150 mM NaCl, 0.5 mM TCEP, one-site model
T1 construct: The FBF-2 RBD protein (residue 164-575) was purified as described previously; His6-SUMO (N, cleaved yes); made in house; host or cells: E. coli BL21-CodonPlus (DE3)-RIL (host inferred: b50 says the procedure was otherwise the same as for RBD + CT)
T1 sequence (Q09312 whole entry, looked up): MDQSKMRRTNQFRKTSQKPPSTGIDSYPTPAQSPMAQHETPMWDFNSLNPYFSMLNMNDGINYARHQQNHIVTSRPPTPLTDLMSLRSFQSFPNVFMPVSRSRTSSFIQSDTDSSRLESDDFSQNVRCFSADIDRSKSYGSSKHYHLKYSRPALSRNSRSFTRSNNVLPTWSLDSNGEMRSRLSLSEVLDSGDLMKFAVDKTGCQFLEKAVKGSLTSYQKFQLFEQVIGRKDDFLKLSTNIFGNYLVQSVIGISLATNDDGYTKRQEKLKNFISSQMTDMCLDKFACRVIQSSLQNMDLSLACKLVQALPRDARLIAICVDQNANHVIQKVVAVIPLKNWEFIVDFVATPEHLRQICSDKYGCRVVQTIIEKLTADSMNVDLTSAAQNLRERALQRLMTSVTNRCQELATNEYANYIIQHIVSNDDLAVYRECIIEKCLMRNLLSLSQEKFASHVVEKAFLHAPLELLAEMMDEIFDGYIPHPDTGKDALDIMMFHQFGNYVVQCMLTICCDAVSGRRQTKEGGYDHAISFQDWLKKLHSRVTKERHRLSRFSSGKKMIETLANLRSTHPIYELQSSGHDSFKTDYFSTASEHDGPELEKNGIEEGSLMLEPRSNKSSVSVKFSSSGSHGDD
Procedure: To assess that idea, we investigated how the CT affects the protein interaction affinities of the FBF-2 RBD to LST-1 A and LST-1 B, using isothermal titration calorimetry (ITC, Supplementary Table 3). No RNA was included in these experiments.
Experiments were performed at 20 °C using a MicroCal PEAQ-ITC Automated (Malvern Instruments) with a 200-μL standard cell and a 40-μL titration syringe. FBF-2 and LST-1 variants were prepared in a buffer of 20 mM HEPES pH 7.4, 150 mM NaCl, and 0.5 mM TCEP by gel filtration. LST-1 (100–400 µM) was titrated from the syringe into the cell containing FBF-2 (10–30 µM) in 2 µl aliquots. Experiments were performed in duplicate due to the limitation of the amount of protein needed. Data were analyzed using the MicroCal PEAQ-ITC Analysis Software (version 1.40) provided by the manufacturer with the one-site model (Table S3).
Supplementary Table 3. Protein interaction affinities, stoichiometries, and thermodynamic parameters between FBF-2 CT/LST-1 variants and FBF-2 measured by ITC. Two technical replicates (n=2 independent experiments) were performed for each analysis with similar results, and the values are shown for each replicate. Source data are provided as a Source Data file. […]
RBD+CT LST-1 A none Not detected
RBD FBF-2 CT none Not detected
1 Reported previously 18.

FBF-2 RBD + CT = target: T2, FBF-2 RBD + CT (Caenorhabditis elegans, UniProt Q09312); assay: ITC, peptide into FBF-2 RBD + CT, no RNA; type: binding, C. elegans; settings: mean of two independent replicates; 20 °C, 20 mM HEPES pH 7.4, 150 mM NaCl, 0.5 mM TCEP; one-site model
T2 construct: A cDNA fragment encoding C. elegans FBF-2 RBD + CT (residues 164-632) was cloned into the pSMT3 vector; His6-SUMO (N, cleaved yes); made in house; host or cells: E. coli BL21-CodonPlus (DE3)-RIL
T2 sequence (Q09312 whole entry, looked up): T1 sequence (Q09312 whole entry, looked up)

FBF-2 RBD + CT L610A [2] = target: T3, FBF-2 RBD + CT L610A (Caenorhabditis elegans, UniProt Q09312, L610A); type: binding, C. elegans; settings: pH 7.4
T3 construct: A cDNA fragment encoding C. elegans FBF-2 RBD + CT (residues 164-632) was cloned into the pSMT3 vector; His6-SUMO (N, cleaved yes); made in house; host or cells: E. coli BL21-CodonPlus (DE3)-RIL (as for wild type)

FBF-2 RBD [3] = target: T1, FBF-2 RBD; settings: reported previously, cited from earlier work
Text: Given that the core residues of three distinct PIMs—FBF-2 CT, LST-1 A, and LST-1 B—all bind to the same site of FBF-2, we hypothesized that the intramolecular FBF-2 CT binding could compete with LST-1 A and LST-1 B binding. To assess that idea, we investigated how the CT affects the protein interaction affinities of the FBF-2 RBD to LST-1 A and LST-1 B, using isothermal titration calorimetry (ITC, Supplementary Table 3). No RNA was included in these experiments. We first measured the binding affinity of an isolated CT peptide and the FBF-2 RBD (no CT), by titrating the peptide, FBF-2^601–632, ... || Fig. 2 The FBF-2 CT competes with partner proteins for binding to the RBD. Representative isothermal titration calorimetry thermograms (top, differential power [DP] vs time) and corresponding titration curve-fitting graphs (bottom) are shown for interaction between a FBF-2 RBD and FBF-2 CT, c FBF-2 RBD + CT and LST-1 A, d FBF-2 RBD + CT and LST-1 B, e FBF-2 RBD and FBF-2 CT L610A, f FBF-2 RBD + CT L610A and LST-1 A, and g FBF-2 RBD + CT L610A and LST-1 B. Data points on the curve-fitting graphs are shown as open circles. b Previously reported mean Kd from two independent replicates with simila ... || We next compared the protein interaction affinities of LST-1 A or LST-1 B with either FBF-2 RBD + CT or RBD alone (Fig. 2c–g, Supplementary Table 3). For these experiments, we titrated the LST-1 peptide into an ITC cell containing either RBD + CT or RBD.

gld-1 FBEa RNA = settings: LST-1 peptide with FBF-2 RBD (no CT); cited from earlier work
Text: LST-1 is expressed in GSCs in response to signaling from the stem cell niche. The LST-1 protein is largely unstructured (Fig. 1b), including an N-terminal region that is sufficient for self-renewal of GSCs[22]. This LST-1 IDR region harbors two PUF Interacting Motifs (PIMs), LST-1 A and LST-1 B, that interact with FBF-2, each with a KxxL sequence[17],[22]. Crystal structures of FBF-2 bound to LST-1 A or B identify a seven-residue core region, including the KxxL sequence, that binds to FBF-2 with similar peptide backbone structure[17],[18]. The two LST-1 PIMs are biologically redundant for ... || If the FBF-2 CT reduces RNA-binding affinity (Fig. 3b) and competes with LST-1 for binding (Fig. 2c, d), why then does FBF-2 depend on LST-1 to repress RNAs in nematodes? To address this question, we explored RNA-binding affinities of FBF-2 RBD + CT in the presence of either LST-1 A or LST-1 B (Fig. 6; Supplementary Table 3). In contrast to results with FBF-2 RBD alone[17],[18], both LST-1 A and LST-1 B increased the RNA-binding affinity of FBF-2 RBD + CT.

[4] = target: T4, FBF-2 RBD + CT (FBF-2 residues 164-632) (C. elegans, UniProt Q09312 164-632); assay: cell-based or functional assay
T4 sequence (looked up): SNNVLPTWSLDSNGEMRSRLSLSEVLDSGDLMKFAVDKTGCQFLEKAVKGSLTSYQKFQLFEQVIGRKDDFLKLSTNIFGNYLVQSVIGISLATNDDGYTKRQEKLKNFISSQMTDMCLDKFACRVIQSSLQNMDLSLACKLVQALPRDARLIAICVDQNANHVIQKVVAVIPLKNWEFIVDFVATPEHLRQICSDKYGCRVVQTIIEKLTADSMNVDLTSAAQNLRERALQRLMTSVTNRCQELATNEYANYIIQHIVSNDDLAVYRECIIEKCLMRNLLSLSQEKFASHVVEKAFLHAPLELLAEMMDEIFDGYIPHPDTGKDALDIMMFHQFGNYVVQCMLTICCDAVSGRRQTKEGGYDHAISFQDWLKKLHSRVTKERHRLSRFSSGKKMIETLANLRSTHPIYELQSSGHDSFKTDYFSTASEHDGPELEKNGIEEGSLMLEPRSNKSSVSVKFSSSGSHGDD

[5] = target: T5, FBF-2 RBD (FBF-2 residues 164-575) (C. elegans, UniProt Q09312 164-575); assay: ITC
T5 chain: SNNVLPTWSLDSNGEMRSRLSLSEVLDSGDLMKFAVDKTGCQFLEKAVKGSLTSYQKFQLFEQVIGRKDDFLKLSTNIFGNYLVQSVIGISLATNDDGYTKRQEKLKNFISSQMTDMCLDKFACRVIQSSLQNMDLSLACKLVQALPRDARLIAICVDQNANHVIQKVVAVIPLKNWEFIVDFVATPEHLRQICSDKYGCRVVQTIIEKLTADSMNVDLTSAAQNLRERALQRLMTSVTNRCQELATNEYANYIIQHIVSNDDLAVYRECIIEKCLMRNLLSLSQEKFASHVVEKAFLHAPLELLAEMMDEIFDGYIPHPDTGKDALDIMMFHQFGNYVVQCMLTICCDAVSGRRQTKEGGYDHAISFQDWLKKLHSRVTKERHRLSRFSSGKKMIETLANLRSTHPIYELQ

FBF-2 RBD + CT L610A [6] = target: T6, FBF-2 RBD + CT L610A (C. elegans, UniProt Q09312 164-632, L610A); assay: ITC
T6 sequence: T4 sequence (looked up) with L447A

[7] = target: T5, FBF-2 RBD (FBF-2 residues 164-575); assay: ITC
FBF-2 RBD + CT L610A [8] = target: T7, FBF-2 RBD + CT L610A (C. elegans, UniProt Q09312 164-632, L610A); assay: ITC; peptide (100–400 µM) titrated from the syringe into the cell containing FBF-2 (10–30 µM); 20 °C; 20 mM HEPES pH 7.4, 150 mM NaCl, 0.5 mM TCEP; no RNA; one-site model; mean of two replicates; settings: both partners purified
T7 construct: source: E. coli, expressed and purified like wild type proteins; not shown: His6-SUMO, N-terminal, cleaved
T7 sequence (looked up): T4 sequence (looked up) with L447A

T3 sequence (Q09312 164-632 L610A): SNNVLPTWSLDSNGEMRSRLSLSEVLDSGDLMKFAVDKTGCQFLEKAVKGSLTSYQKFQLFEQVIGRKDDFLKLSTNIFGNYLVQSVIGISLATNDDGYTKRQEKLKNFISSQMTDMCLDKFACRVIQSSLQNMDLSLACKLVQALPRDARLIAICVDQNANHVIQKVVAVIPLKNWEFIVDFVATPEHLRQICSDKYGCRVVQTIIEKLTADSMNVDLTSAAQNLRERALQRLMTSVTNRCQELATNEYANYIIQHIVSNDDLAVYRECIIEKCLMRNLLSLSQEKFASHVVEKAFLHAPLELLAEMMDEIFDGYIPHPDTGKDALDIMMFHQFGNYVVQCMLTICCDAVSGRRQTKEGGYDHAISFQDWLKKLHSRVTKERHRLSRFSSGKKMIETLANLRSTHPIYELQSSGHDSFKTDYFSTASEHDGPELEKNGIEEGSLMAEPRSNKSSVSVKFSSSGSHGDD

FBF-2 CT L610A: FBF-2 CT (601-632) with L610A (NGIEEGSLMAEPRSNKSSVSVKFSSSGSHGDD)
Kd (FBF-2 RBD [1]): No binding; also recorded: Not detected | Kd (FBF-2 RBD [1]; listed as CT peptide with L610A): No binding was detected

LST-1 A: LST-1 A peptide, residues 19–50, expressed in E. coli (STIAYSKSQHEAPKQLLQLRSEIKPLIPLNQP; left off: His6-SUMO, N-terminal, cleaved)
Kd (FBF-2 RBD + CT): No binding; also recorded: too weak to be detected by ITC; also recorded: Not detected | ∆G (FBF-2 RBD + CT L610A [2]): -7.62 kcal/mol | -T∆S (FBF-2 RBD + CT L610A [2]; replicate 1, 20 °C): 4.45 kcal/mol | ∆G (FBF-2 RBD + CT L610A [2]; replicate 1, 20 °C): -7.5 kcal/mol | ∆H (FBF-2 RBD + CT L610A [2]; replicate 1, 20 °C): -12 kcal/mol | -T∆S (FBF-2 RBD + CT L610A [2]; replicate 2, 20 °C): 4.73 kcal/mol | ∆H (FBF-2 RBD + CT L610A [2]; replicate 2, 20 °C): -12.4 kcal/mol | -T∆S (FBF-2 RBD [3]; replicate 1): 6.07 kcal/mol | ∆G (FBF-2 RBD [3]; replicate 1): -7.62 kcal/mol | ∆H (FBF-2 RBD [3]; replicate 1): -13.7 kcal/mol | -T∆S (FBF-2 RBD [3]; replicate 2): 6 kcal/mol | ∆G (FBF-2 RBD [3]; replicate 2): -7.65 kcal/mol | ∆H (FBF-2 RBD [3]; replicate 2): -13.6 kcal/mol | effect on RNA-binding affinity of FBF-2 RBD (gld-1 FBEa RNA): no effect on RNA-binding affinity

B1: LST-1 A peptide (LST-1 residues 19-50) (peptide, UniProt P91820 19-50, looked up)
chain: STIAYSKSQHEAPKQLLQLRSEIKPLIPLNQP
notes: The tag was cleaved with Ulp1 protease; also called LST-1^19–50; source: E. coli, purified (Ni-NTA, HiTrap Q flow-through, Superdex 75); not shown: His6-SUMO, N-terminal, cleaved
RNA-binding affinity of FBF-2 RBD + CT for gld-1 FBEa RNA by EMSA in the presence of 150 µM LST-1 A [4]: 3 fold | Kd [5]: 2.1 µM | Kd (FBF-2 RBD + CT L610A [6]): 2.1 µM and 2.6 µM | Kd [7]: 2.13 µM and 2.02 µM | Kd (FBF-2 RBD + CT L610A [8]): 2.4 µM
